Biological target: T1, Y2 I-AniI (Aspergillus nidulans (mitochondrial)?, UniProt P03880 235-488, F247Y;S345Y;F314K;L466K)
T1 sequence: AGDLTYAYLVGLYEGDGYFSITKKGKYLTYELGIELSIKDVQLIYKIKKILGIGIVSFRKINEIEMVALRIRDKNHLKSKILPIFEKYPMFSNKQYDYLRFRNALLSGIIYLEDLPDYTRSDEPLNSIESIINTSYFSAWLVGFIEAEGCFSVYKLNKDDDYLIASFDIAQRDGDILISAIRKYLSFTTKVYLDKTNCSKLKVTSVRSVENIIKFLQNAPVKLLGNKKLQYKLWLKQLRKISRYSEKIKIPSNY
Experiment: X-ray crystallography

B1: Y2 co-crystal I-AniI target duplex (dsDNA)
DNA 1: GCGCGCTGAGGAGGTTTCTCTGTAAAGCGCA
DNA 2: GCGCTTTACAGAGAAACCTCCTCAGCGCGCT
binding result: binds

Source: publication PMC2647301
